According to the supplement of paper PMC9170038:

Columns and labels:
MS2 coat protein [1] = test: apparent KD of MS2 coat protein, switch ON state; designed switch direction (-1 OFF switch, 1 ON switch): -1; higher = weaker reporter binding; details: FMN input: 0 or 200 uM; Eterna round: R93 (includes R88 designs)
Method in brief: (§1)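 On-chip transcription from Illumina sequencing clusters produced the designed RNA switches. These were titrated with SNAP-549-labelled MS2 coat protein (twofold steps, 0.7 or 1.5 nM to 3 µM) in 100 mM Tris-HCl pH 7.5, 80 mM KCl, 4 mM MgCl2, with or without constant ligand. The apparent KD given is the per-design median of normalised cluster binding-curve fits.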

MS2 coat protein [2] = test: apparent KD of MS2 coat protein, switch OFF state (with FMN for OFF switches, without FMN for ON switches); designed switch direction (-1 OFF switch, 1 ON switch): -1; higher = weaker reporter binding; details: FMN input: 0 or 200 uM; Eterna round: R93 (includes R88 designs)
Method in brief: as §1

Row | Sequence | apparent KD of MS2 coat protein (MS2 coat protein [1]) [nM] | apparent KD of MS2 coat protein (MS2 coat protein [2]) [nM]
1 | AGAUAGUCAGGAUAUACGAACAAGAAAAAAGACGAGAACGGACAUGAGGAUCACCCAUGUAGAAGGGACAAGAA [Diamond 12] | 63 | 37
2 | AGCAAGUCAGGAUAUACGAACAAGACAAAAGACGUGAAGGGACAUGAGGAUCACCCAUGUAGAAGGGACAAGCA [74%, Web mod - With 4 less U's] | 79.1 | 55.8
3 | AGCUAGAGAGGAUAUACAUAAAAAAAAAAAGUCUGAUCCCUACAUGAGGAUCACCCAUGUAGAAGGCUCUGGCA [Ex2 Design 157: Sub-opt 21] | 38.1 | 38.5
4 | AGCUAGCAAGGAUAUGCGAACAUGUCAAAAGACGUGAAGGGACAUGAGGAUCACCCAUGUAGAAGGUGCUAGCA [JL 74% mod 9] | 35.7 | 27.6
5 | AGCUAGUCAGGAUAUACGAAAAUGUCAGAGGCAGUAAGGGAACAUGAGGAUCACCCAUGUAGAAGGGACUAGCA [Diamond 40] | 36.1 | 87.7
6 | AGCUAGUCAGGAUAUACGAACAAGACAAAAGACGUGAAGGGACAUGAGGAUCACCCAUGUAGAAGGGACUAGCA [74%, Web mod - With 2 less U's] | 26.2 | 71.3
7 | AGCUAGUCAGGAUAUACGAACAGGUCAAAAGACCUGAAGGGACAUGAGGAUCACCCAUGUAGAAGGGACUAGCA [Mat - Exclusion 2 - JL mod - D28] | 25.8 | 131
8 | AGCUAGUCAGGAUAUACGAACAUGUCAAAAGACGUGAAGAAACAUGAGGAUCACCCAUGUAGAAGGGACUAGCA [Mat - Exclusion 2 - JL-Eli mod - D50] | 16.7 | 12.4
9 | AGCUAGUCAGGAUAUACGAACAUGUCAGAAGACGUAAGGGAACAUGAGGAUCACCCAUGUAGAAGGGACUAGCA [Diamond 48] | 33.1 | 75
10 | AGCUAGUCAGGAUAUACGCAAACGAACGAAGCAGAGAAGGGACAUGAGGAUCACCCAUGUAGAAGGGACUAGCA [Diamond 31] | 28.8 | 84.9
11 | AGCUAGUGAGGAUAUGCGAACAUGUCAAAAGACGUGAAGGGACAUGAGGAUCACCCAUGUAGAAGGCACUAGCA [JL 74% mod 3] | 26.4 | 36.3
12 | AGCUCGGUAGGAUAUACAAAAUGAUUGCGAAAGCAAUCAACACAUGAGGAUCACCCAUGUAGAAGGACCGAGCA [Mat - Exclusion 2 - JL-Eli mod - D42] | 15.2 | 20
13 | AGGAAACAUGAGGAUCACCCAUGUAAGGAUAUGAACGAAAUAAAAUAAAAAUAAAAGUUCAGAAGGUACAAAAA [Mat - Exclusion 1 - Eli mod - D8] | 31.8 | 39.3
14 | AGGAAACAUGAGGAUCACCCAUGUCAGGAUAUUGAAAAGAAAAGAAAAGAAAGAAGAACAAGAAGGGACAAGAA [Mekh] | 27.2 | 20.6
15 | AGGAAACAUGAGGAUCACCCAUGUGAGGAUAUGAGAAAGAAAAGAAAAGAAAGAAGAAUCAGAAGGCACAAGAA [Raneb] | 42.8 | 46.6
16 | AGGGAGUCAGGAUAUCGGAAAAAAAAACAACGAAAAAAAGACGAGAAGGGACAUGAGGAUCACCCAUGUAAGAA [milkweed 16] | 41.4 | 23.5
17 | AGGUUGUCAGGAUAUGCGUGAAGAAUAAAACAAAUAACAACGCAGAAGGGACAUGAGGAUCACCCAUGUUAAGA [May 47] | 39.8 | 48.3
18 | AGUACUACAGGAUAUACGAGGGAGGUCCACGUGAACCUUAUACAUGAGGAUCACCCAUGUAGAAGGGUAGUACA [Ex2 Design 108: Super Stable 8] | 50.9 | 18.4
19 | AGUCAGAGAGGAUAUACAUAGGAAAAAAAAGUAAGAUCCCUACAUGAGGAUCACCCAUGUAGAAGGCUCUGACA [Ex2 Design 140: Sub-opt 4] | 141 | 87.5
